Assay results reported in article PMC10441363 (bioRxiv, 2023).

Target: hemagglutinin (HA) of A/WSN/1933 (H1N1) (Influenza A virus A/WSN/1933 (H1N1), UniProt I4EPC4)
Experiment: virus aggregation by fluorescence microscopy

Sequence of hemagglutinin (HA) of A/WSN/1933 (H1N1) (P03454 18-565): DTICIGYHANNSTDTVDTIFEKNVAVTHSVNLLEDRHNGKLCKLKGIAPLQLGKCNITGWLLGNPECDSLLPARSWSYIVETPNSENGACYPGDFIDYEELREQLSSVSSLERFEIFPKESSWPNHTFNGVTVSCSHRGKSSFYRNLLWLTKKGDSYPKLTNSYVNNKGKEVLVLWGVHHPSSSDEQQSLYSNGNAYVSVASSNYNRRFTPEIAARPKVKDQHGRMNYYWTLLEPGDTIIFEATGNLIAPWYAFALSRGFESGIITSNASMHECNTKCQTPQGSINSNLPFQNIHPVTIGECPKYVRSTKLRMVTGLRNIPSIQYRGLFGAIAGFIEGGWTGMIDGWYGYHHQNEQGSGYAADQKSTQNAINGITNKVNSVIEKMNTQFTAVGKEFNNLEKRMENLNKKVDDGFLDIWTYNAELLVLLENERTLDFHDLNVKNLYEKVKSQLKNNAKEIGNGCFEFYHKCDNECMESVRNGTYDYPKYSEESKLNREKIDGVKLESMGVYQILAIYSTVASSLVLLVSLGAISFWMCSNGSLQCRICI

B1: C05 IgG (antibody, V domains shown)
VH: QVQLQESGGGLVQPGESLRLSCVGSGSSFGESTLSYYAVSWVRQAPGKGLEWLSIINAGGGDIDYADSVEGRFTISRDNSKETLYLQMTNLRVEDTGVYYCAKHMSMQQVVSAGWERADLVGDAFDVWGQGTMVTVSS
VL: DIQLTQSPSSLSASVGDRVTLTCQASQDIRKFLNWYQQKPGKGPKLLIYDASNLQRGVPSRFSGGGSGTDFTLIISSLQPEDVGTYYCQQYDGLPFTFGGGTKVVIK
- binding result: binds

B2: S139\1 IgG (antibody, V domains shown)
VH: QVQLQQSGTELKKPGASVKISCKATGYTFSSYWIEWIKQRPGHGLEWIGEILPEIGMTNYNENFKGKATFTANTSSNTVYMQLSSLTSEDSAVYYCARPYDYSWFAYWGQGTLVTVSA
VL: DIVMTQSQKFMSTSVGDRVSVTCKASQNVDTNVAWYQEKPGQSPKTLIYSASNRYSGVPDRFTGSASGTDFTLTITNVQSEDLAEYFCQQYNSYPYTFGGGTKLEIK
- binding result: binds
